Measurements: patent US20240116985A1 (published 2024)
Starred links: 1 amine or outer side, 2 acyl side, 3 side chain; linkers in the order of their positions; H or OH if unused. Positions of bridges follow the written chain, without caps; N, C: chain ends. Non-standard residues stand in square brackets, D forms with d. Primed or numbered codes have the meaning given here. B5(11) = 2,2-bis(4-pentenyl)glycine = 2-amino-2-(pent-4-en-1-yl)hept-6-enoic acid (stitching residue, bears both staples), C=CCCCC(CCCC=C)(N[*:1])C(=O)[*:2]; B5(26) = 2-amino-2-(pent-4-en-1-yl)hept-6-enoic acid (bis-pentenylglycine), stitching residue carrying two staples, C=CCCCC(CCCC=C)(N[*:1])C(=O)[*:2]; B5(24) = 2-amino-2-(pent-4-en-1-yl)hept-6-enoic acid, 2,2-bis(4-pentenyl)glycine (stitching residue), C=CCCCC(CCCC=C)(N[*:1])C(=O)[*:2]; B5(21) = 2-amino-2-(pent-4-en-1-yl)hept-6-enoic acid, bis(4-pentenyl)glycine (stitching residue), C=CCCCC(CCCC=C)(N[*:1])C(=O)[*:2]; S(OMe) = O-methyl-L-serine, COC[C@H](N[*:1])C(=O)[*:2]; Phe(2-Cl) = N[C@@H](Cc1ccccc1Cl)C(=O)O; His(τ-Me) = Cn1cnc(C[C@H](N)C(=O)O)c1; Bta = N[C@@H](Cc1csc2ccccc12)C(=O)O; His(π-Me) = Cn1cncc1C[C@H](N)C(=O)O; αAllylPro = C=CC[C@@]1(C(=O)O)CCCN1; NMeH = CN[C@@H](Cc1c[nH]cn1)C(=O)O; S8 = C=CCCCCCC[C@](C)(N)C(=O)O

T1: full-length beta-Catenin (Uniprot ID P35222) (Homo sapiens (Human), UniProt P35222 1-781)
T1 construct: The assay protocol says full-length beta-Catenin (Uniprot ID P35222); tags are not described; also called bCat; B-Catenin
T1 sequence: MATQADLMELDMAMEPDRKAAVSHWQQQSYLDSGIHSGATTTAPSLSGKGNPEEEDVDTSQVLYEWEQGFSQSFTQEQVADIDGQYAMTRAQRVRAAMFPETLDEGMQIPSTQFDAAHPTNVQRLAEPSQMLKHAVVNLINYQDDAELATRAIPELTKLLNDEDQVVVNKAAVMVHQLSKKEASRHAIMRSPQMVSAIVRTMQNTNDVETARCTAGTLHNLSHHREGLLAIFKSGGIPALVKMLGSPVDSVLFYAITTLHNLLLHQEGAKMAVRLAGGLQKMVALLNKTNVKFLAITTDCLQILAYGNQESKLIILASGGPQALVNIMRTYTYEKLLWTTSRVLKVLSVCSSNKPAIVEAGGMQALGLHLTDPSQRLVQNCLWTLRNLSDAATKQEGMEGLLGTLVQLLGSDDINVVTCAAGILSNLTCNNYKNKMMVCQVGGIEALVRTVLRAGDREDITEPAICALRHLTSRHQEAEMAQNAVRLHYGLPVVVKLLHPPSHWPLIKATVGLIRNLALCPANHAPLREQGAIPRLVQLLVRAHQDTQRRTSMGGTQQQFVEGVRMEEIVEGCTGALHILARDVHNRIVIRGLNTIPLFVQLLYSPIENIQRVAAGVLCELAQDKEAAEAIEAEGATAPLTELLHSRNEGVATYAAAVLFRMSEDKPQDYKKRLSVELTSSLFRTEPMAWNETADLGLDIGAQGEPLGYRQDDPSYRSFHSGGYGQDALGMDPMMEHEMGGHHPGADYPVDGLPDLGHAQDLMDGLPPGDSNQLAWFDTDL

T2: full-length beta-Catenin (Uniprot ID P35222) (Homo sapiens (Human), UniProt P35222 1-781)
T2 construct: also called bCat; B-Catenin
T2 sequence: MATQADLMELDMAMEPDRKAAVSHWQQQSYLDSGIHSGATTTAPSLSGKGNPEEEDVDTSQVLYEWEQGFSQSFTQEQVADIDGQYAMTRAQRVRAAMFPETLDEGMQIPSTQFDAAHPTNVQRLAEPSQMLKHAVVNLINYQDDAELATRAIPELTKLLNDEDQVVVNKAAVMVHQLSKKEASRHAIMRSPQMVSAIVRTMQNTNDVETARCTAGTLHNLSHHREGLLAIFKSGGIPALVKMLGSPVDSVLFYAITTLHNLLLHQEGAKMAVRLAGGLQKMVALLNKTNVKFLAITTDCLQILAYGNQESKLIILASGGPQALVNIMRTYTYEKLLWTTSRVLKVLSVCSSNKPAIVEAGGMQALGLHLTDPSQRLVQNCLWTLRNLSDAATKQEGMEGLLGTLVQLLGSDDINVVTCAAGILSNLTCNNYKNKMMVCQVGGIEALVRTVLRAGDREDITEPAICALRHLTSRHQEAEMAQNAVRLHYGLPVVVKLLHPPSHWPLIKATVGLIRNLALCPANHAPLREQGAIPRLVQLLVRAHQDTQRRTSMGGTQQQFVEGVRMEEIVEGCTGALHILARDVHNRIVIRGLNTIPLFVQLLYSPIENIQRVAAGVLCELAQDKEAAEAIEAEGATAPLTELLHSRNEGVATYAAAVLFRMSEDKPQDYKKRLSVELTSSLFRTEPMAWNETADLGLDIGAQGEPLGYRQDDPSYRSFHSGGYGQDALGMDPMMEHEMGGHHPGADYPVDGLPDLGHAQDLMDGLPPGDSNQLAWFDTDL


The binders below were run against T1, full-length beta-Catenin (Uniprot ID …) (assay: fluorescence polarization competition: full-length beta-catenin + 5FAM-TCF4(10-53) probe, peptide titrated).
Protocol: (§1) The plate was incubated protected from light for 60 minutes at 20° C. prior to read. Reads were performed on a CLARIOstar plate reader (BMG Labtech) in duplicate, and data were fitted to a 1:1 binding model with hill slope using an in-house script. All provided concentrations are final concentrations.

Binder	EC50
Ac-[αAllylPro]DA[B5(24)]DEAAF[S(OMe)][S8]F[Bta]Q-NH2 (staple 1-4, 4-11, Stapled (stitched) peptide with non-natural residues) [I-433]	136 nM
Ac-[αAllylPro]DA[B5(26)]DEAAFN[S8][His(π-Me)][Bta]Q-NH2 (staple 1-4, 4-11, Stapled (stitched) peptide with non-natural residues) [I-438]	5000 nM
Ac-[αAllylPro]DA[B5(21)]DEAAFN[S8][His(τ-Me)][Bta]Q-NH2 (staple 1-4, 4-11, Staple isomer composition: earlier-eluting HPLC peak) [I-439]	5000 nM
XDAXDEAAFNXHXQ (not fully specified; Ac-PL3-Asp-Ala-B5-Asp-Glu-Ala-Ala-Phe-Asn-S8-1meH-BztA-Gln-NH2; N-terminal acetyl, C-terminal amide; stapled PL3(1)-B5(4) and B5(4)-S8(11) by olefin metathesis, Staple isomer composition: later-eluting HPLC peak) [I-440]	5000 nM
Ac-[αAllylPro]DA[B5(24)]DEAAFN[S8][Phe(2-Cl)][Bta]Q-NH2 (staple 1-4, 4-11, Stapled (stitched) peptide with non-natural residues) [I-435]	70 nM

What follows are binders tested against T2, full-length beta-Catenin (Uniprot ID …) (assay: fluorescence polarization competition; full-length beta-catenin, competitor 5FAM-TCF4(10-53) probe).
Protocol: as §1

Binder	IC50
XDLXDEAAFNXFXQI (not fully specified; N-terminal Ac; C-terminal NH2; PL3 at 1, B5 at 4, S8 at 11, BztA at 13; stapled PL3-B5 and B5-S8 by olefin metathesis, Stapled peptide; also called Ac-PL3-Asp-Leu-B5-Asp-Glu-Ala-Ala-Phe-Asn-S8-Phe-BztA-Gln-Ile-NH2) [I-732]	4220 nM
XDLXDEAAFNXFXQA (not fully specified; N-terminal Ac; C-terminal NH2; PL3 at 1, B5 at 4, S8 at 11, BztA at 13; stapled PL3-B5 and B5-S8 by olefin metathesis, Stapled peptide; same description as I-730, earlier eluting staple isomer composition; also called Ac-PL3-Asp-Leu-B5-Asp-Glu-Ala-Ala-Phe-Asn-S8-Phe-BztA-Gln-Ala-NH2) [I-729]	56 nM
XDLXDEAAFNXFXHA (not fully specified; N-terminal Ac; C-terminal NH2; PL3 at 1, B5 at 4, S8 at 11, BztA at 13; stapled PL3-B5 and B5-S8 by olefin metathesis, also called Ac-PL3-Asp-Leu-B5-Asp-Glu-Ala-Ala-Phe-Asn-S8-Phe-BztA-His-Ala-NH2) [I-738]	63 nM
XDLXDEAAFNXFXHA (not fully specified; N-terminal Ac; C-terminal NH2; PL3 at 1, B5 at 4, S8 at 11, BztA at 13, dAla (D-Ala) at 15; stapled PL3-B5 and B5-S8 by olefin metathesis, also called Ac-PL3-Asp-Leu-B5-Asp-Glu-Ala-Ala-Phe-Asn-S8-Phe-BztA-His-dAla-NH2) [I-739]	53 nM
XDLXDEAAFNXFXHI (not fully specified; N-terminal Ac; C-terminal NH2; PL3 at 1, B5 at 4, S8 at 11, BztA at 13; stapled PL3-B5 and B5-S8 by olefin metathesis, Stapled peptide; same description as I-741, earlier eluting staple isomer composition; also called Ac-PL3-Asp-Leu-B5-Asp-Glu-Ala-Ala-Phe-Asn-S8-Phe-BztA-His-Ile-NH2) [I-740]	376 nM
XDLXDEAAFNXFXHI (not fully specified; N-terminal Ac; C-terminal NH2; PL3 at 1, B5 at 4, S8 at 11, BztA at 13; stapled PL3-B5 and B5-S8 by olefin metathesis, Stapled peptide; same description as I-740, later eluting staple isomer composition; also called Ac-PL3-Asp-Leu-B5-Asp-Glu-Ala-Ala-Phe-Asn-S8-Phe-BztA-His-Ile-NH2) [I-741]	226 nM
XDLXDEAAFNXFXHI (not fully specified; N-terminal Ac; C-terminal NH2; PL3 at 1, B5 at 4, S8 at 11, BztA at 13, dIle (D-Ile) at 15; stapled PL3-B5 and B5-S8 by olefin metathesis, also called Ac-PL3-Asp-Leu-B5-Asp-Glu-Ala-Ala-Phe-Asn-S8-Phe-BztA-His-dIle-NH2) [I-742]	159 nM
XDLXDEAAFNXFXQI (not fully specified; N-terminal Ac; C-terminal NH2; PL3 at 1, B5 at 4, S8 at 11, BztA at 13; stapled PL3-B5 and B5-S8 by olefin metathesis, Stapled peptide; also called Ac-PL3-Asp-Leu-B5-Asp-Glu-Ala-Ala-Phe-Asn-S8-Phe-BztA-Gln-Ile-NH2) [I-733]	4260 nM
XDLXDEAAFNXFXQI (not fully specified; N-terminal Ac; C-terminal NH2; PL3 at 1, B5 at 4, S8 at 11, BztA at 13, dIle (D-Ile) at 15; stapled PL3-B5 and B5-S8 by olefin metathesis, Stapled peptide; also called Ac-PL3-Asp-Leu-B5-Asp-Glu-Ala-Ala-Phe-Asn-S8-Phe-BztA-Gln-dIle-NH2) [I-734]	370 nM
XDLXDEAAFNXFXQI (not fully specified; N-terminal Ac; C-terminal NH2; PL3 at 1, B5 at 4, S8 at 11, BztA at 13, dIle (D-Ile) at 15; stapled PL3-B5 and B5-S8 by olefin metathesis, Stapled peptide; also called Ac-PL3-Asp-Leu-B5-Asp-Glu-Ala-Ala-Phe-Asn-S8-Phe-BztA-Gln-dIle-NH2) [I-735]	246 nM
XDLXDEAAFNXFXH (not fully specified; N-terminal Ac; C-terminal NH2; PL3 at 1, B5 at 4, S8 at 11, BztA at 13, dHis (D-His) at 14; stapled PL3-B5 and B5-S8 by olefin metathesis, Stapled peptide; also called Ac-PL3-Asp-Leu-B5-Asp-Glu-Ala-Ala-Phe-Asn-S8-Phe-BztA-dHis-NH2) [I-744]	112 nM
XDLXDEAAFNXFXT (not fully specified; N-terminal Ac; C-terminal NH2; PL3 at 1, B5 at 4, S8 at 11, BztA at 13; stapled PL3-B5 and B5-S8 by olefin metathesis, Stapled peptide; same description as I-749, earlier eluting staple isomer composition; also called Ac-PL3-Asp-Leu-B5-Asp-Glu-Ala-Ala-Phe-Asn-S8-Phe-BztA-Thr-NH2) [I-748]	54 nM
XDLXDEAAFNXFXH (not fully specified; N-terminal Ac; C-terminal NH2; PL3 at 1, B5 at 4, S8 at 11, BztA at 13, dHis (D-His) at 14; stapled PL3-B5 and B5-S8 by olefin metathesis, Stapled peptide; same description as I-744, later eluting staple isomer composition; also called Ac-PL3-Asp-Leu-B5-Asp-Glu-Ala-Ala-Phe-Asn-S8-Phe-BztA-dHis-NH2) [I-745]	80 nM
Ac-[αAllylPro]DL[B5(11)]DEAAFN[S8]F[Bta][NMeH]-NH2 (staple 1-4, 4-11; not fully specified, Stapled peptide; same description as I-747, earlier eluting staple isomer composition; also called Ac-PL3-Asp-Leu-B5-Asp-Glu-Ala-Ala-Phe-Asn-S8-Phe-BztA-NMeHis-NH2) [I-746]	5000 nM
Ac-[αAllylPro]DL[B5(11)]DEAAFN[S8]F[Bta][NMeH]-NH2 (staple 1-4, 4-11; not fully specified, Stapled peptide; same description as I-746, later eluting staple isomer composition; also called Ac-PL3-Asp-Leu-B5-Asp-Glu-Ala-Ala-Phe-Asn-S8-Phe-BztA-NMeHis-NH2) [I-747]	2390 nM
